Drawing on patent US20240398906A1 (YEDA RESEARCH AND DEVELOPMENT, published 2024), this text covers EC50 and Kd for two molecules.

One test concerns the target T1, recombinant HSP70 (UniProt P0DMV8 1-641, limits assumed).
T1 construct: Purified on a HisTrap column; also called heat shock protein 70
Kind of test: ELISA, plate coated with recombinant HSP70, detection with anti-human peroxidase antibody. How it is done:
(§1) ELISA binding assay: A ninety-six-well plate (Nunc) was coated with LOX-catalytic domain, HSP70 or BSA at 10 μg/ml. After blocking with 2% BSA in PBS, the plate was incubated with the antibodies for 1 h at 37° C. Bound antibodies were detected by peroxidase-conjugated antibody goat anti-human (Jackson ImmunoResearch). EC₅₀ was calculated with GraphPad Prism from […] curve fitting analysis.
(In general: In an ELISA, binding on a coated surface is turned into a signal by an enzyme label.)

The target of test [1] is T2, recombinant catalytic domain of human LOX (169-417) (human, UniProt P28300 169-417).
T2 construct: also called LOX-catalytic domain; recombinant LOX
T2 sequence: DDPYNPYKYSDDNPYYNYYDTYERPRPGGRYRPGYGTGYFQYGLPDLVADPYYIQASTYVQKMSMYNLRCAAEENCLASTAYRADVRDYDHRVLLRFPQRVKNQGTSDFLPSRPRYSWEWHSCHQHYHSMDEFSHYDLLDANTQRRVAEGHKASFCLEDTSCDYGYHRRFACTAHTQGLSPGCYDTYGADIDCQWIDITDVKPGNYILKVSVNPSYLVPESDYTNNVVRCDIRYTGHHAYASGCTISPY
Briefly: ELISA, plate coated with LOX catalytic domain, detection with anti-human peroxidase antibody. How it is done:
as §1

The target in test [2] is T2, recombinant catalytic domain of human …. Kind of test: dissociation constant against LOX; microscale thermophoresis according to paragraph 89. A general note: MST reads how a fluorescent partner responds to local heating, with and without ligand.
For test [3] the target is unchanged. Briefly: binding affinity against LOX; ELISA according to paragraph 88.

“And” between values parts separate entries of the source, which are not always exact repeats. Identical values can stand only once.

T1 sequence (P0DMV8 whole entry): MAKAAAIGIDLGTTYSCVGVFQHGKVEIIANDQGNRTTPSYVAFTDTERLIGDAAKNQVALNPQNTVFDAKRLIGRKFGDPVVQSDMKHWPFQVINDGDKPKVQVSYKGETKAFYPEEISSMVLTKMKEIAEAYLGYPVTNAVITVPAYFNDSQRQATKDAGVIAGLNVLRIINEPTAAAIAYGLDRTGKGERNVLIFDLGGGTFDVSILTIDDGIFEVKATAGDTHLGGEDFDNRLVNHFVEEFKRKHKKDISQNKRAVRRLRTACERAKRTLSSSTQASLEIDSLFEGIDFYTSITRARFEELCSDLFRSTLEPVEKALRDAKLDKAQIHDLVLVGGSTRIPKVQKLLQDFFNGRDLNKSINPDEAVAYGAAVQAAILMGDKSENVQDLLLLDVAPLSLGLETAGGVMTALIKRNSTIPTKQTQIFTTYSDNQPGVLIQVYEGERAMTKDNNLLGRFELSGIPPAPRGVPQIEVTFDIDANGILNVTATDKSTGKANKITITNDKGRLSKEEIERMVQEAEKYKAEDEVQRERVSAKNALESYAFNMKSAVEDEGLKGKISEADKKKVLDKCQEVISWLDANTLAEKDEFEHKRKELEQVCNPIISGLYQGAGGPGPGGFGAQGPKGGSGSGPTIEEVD

B1: AS1 (glycosylated LOX-PP fused to human IgG1 Fc) (Fc fusion)
chain: APPAAGQQQPPREPPAAPGAWRQQIQWENNGQVFSLLSLGSQYQPQRRRDPGAAVPGAANASAQQPRTPILLIRDNRTAAARTRTAGSSGVTAGRPRPTARHWFQAGYSTSRAREAGASRAENQTAPGEVPALSNLRPPSRVDGMVG
modifications: N-glycosylated on N81, N97 and N144 (precursor numbering; positions 60, 76 and 123 of the piece). Disulfide-linked dimer through the Fc hinge.
notes: also called AS1 decoy; not shown: Human IgG1 Fc (hinge-CH2-CH3), its orientation relative to LOX-PP and any linker
B1: the EC50 – broadly, the midpoint of the concentration-response curve – with recombinant HSP70 is 41 nM; in test [1], 43 nM.

B2: Fc-LPD (Fc fusion)
chain: APPAAGQQQPPREPPAAPGAWRQQIQWENNGQVFSLLSLGSQYQPQRRRDPGAAVPGAANASAQQPRTPILLIRDNRTAAARTRTAGSSGVTAGRPRPTARHWFQAGYSTSRAREAGASRAENQTAPGEVPALSNLRPPSRVDGMVG
As to B2, in test [2], the dissociation constant (Kd) (commonly the equilibrium constant for the complex coming apart) was determined as 32 nM. Moreover, the 50% effective concentration (EC50) in test [3] was 40 nM and 43 nM.
